Target: FlAsH-tagged Lys6-linked diubiquitin (UniProt P0CG47)
Assay: fluorescence polarisation

## USP30^c13i (inactive USP30 construct 13, C77A) (from UniProt Q70CQ3 1-517) (enzyme)
  Kd: 4 µM

— paper PMC5757785
